From article PMC8982139

What was measured:
[1] = target: C.1086 NFL (native flexibly linked, with I559P) gp140 trimer (HIV-1 (clade C, C.1086)); test: SEC
[2] = target: C.1086 UFO-v2-RQY^173 gp140 trimer (UFO-v2 with K166R/H170Q/H173Y) (HIV-1 (clade C, C.1086)); test: native gel or EMSA
[3] = target: C.1086 UFO-v2-RQY^173 gp140 trimer (UFO-v2 with K166R/H170Q/H173Y) (HIV-1 (clade C, C.1086)); test: negative-stain electron microscopy
[4] = target: C.1086 SOSIP gp140 (HIV-1 (clade C, C.1086)); test: SEC
[5] = target: C.1086 UFO-v2-RQH^173 gp140 trimer (UFO-v2 with K166R/H170Q, H173 kept) (HIV-1 (clade C, C.1086)); test: native gel or EMSA
[6] = target: C.1086 UFO-v2-RQH^173 gp140 trimer (UFO-v2 with K166R/H170Q, H173 kept) (HIV-1 (clade C, C.1086)); test: negative-stain electron microscopy
[7] = target: C.1086 UFO-v2-RQH^173 gp140 trimer (UFO-v2 with K166R/H170Q, H173 kept) (HIV-1 (clade C, C.1086)); test: SEC
[8] = target: C.1086 UFO-v2 gp140 trimer (UFO with E64K/T316W/A433P) (HIV-1 (clade C, C.1086)); test: SEC

**Q.** With “C.1086 NFL (native flexibly linked, with I559P) gp140 trimer” as the substance, how does the stoichiometry N [1] read?
**A.** 3

**Q.** What does the source list for “C.1086 UFO-v2-RQY^173 gp140 trimer (UFO-v2 with K166R/H170Q/H173Y)”?
**A.** stoichiometry N [2]: 3; stoichiometry N [3]: 3

**Q.** For C.1086 SOSIP gp140, which stoichiometry N [4] is on record?
**A.** 3

**Q.** Which results are given for “C.1086 UFO-v2-RQH^173 gp140 trimer (UFO-v2 with K166R/H170Q, H173 kept)”?
**A.** stoichiometry N [5]: 3; stoichiometry N [6]: 3; stoichiometry N [7]: 3

**Q.** Which stoichiometry N [8] does the source give for “C.1086 UFO-v2 gp140 trimer (UFO with E64K/T316W/A433P)” here?
**A.** 3
